# Assay results reported in article doi:10.1101/504373, “Pyrophosphate modulates stress responses via SUMOylation” (bioRxiv, 2018).
# Biological target: the molecule itself
# Assay: immunoblot after SDS-PAGE of extracts made without DTT; total seedling protein extracted in the presence of NEM to inhibit deSUMOylation; anti-ICE1; both bands absent in ice1-2; monomer (50kD) only with DTT (5 mM) and without NEM
protein,measurement,value
"INDUCER OF CBF EXPRESSION 1 (ICE1) (natural protein, UniProt Q9LSE2 1-494, looked up, Two bands were seen, a non-modified (100kD) and a modified (130kD) dimer; source: endogenous, total protein extract of liquid grown Col-0 seedlings) MGLDGNNGGGVWLNGGGGEREENEEGSWGRNQEDGSSQFKPMLEGDWFSSNQPHPQDLQMLQNQPDFRYFGGFPFNPNDNLLLQHSIDSSSSCSPSQAFSLDPSQQNQFLSTNNNKGCLLNVPSSANPFDNAFEFGSESGFLNQIHAPISMGFGSLTQLGNRDLSSVPDFLSARSLLAPESNNNNTMLCGGFTAPLELEGFGSPANGGFVGNRAKVLKPLEVLASSGAQPTLFQKRAAMRQSSGSKMGNSESSGMRRFSDDGDMDETGIEVSGLNYESDEINESGKAAESVQIGGGGKGKKKGMPAKNLMAERRRRKKLNDRLYMLRSVVPKISKMDRASILGDAIDYLKELLQRINDLHNELESTPPGSLPPTSSSFHPLTPTPQTLSCRVKEELCPSSLPSPKGQQARVEVRLREGRAVNIHMFCGRRPGLLLATMKALDNLGLDVQQAVISCFNGFALDVFRAEQCQEGQEILPDQIKAVLFDTAGYAGMI",stoichiometry N,2
